Several values for one entry are separate records, joined by “and”; a condition that tells them apart may be missing. Equal entries are not always repeated. Where two headings read alike, the source gives them in different places. Residues, ends and D or L forms follow the SMILES beside them.
Key:
in vivo [1] = conditions: female, NOD SCID, mouse, tumor (SK-BR-3 xenograft), iv, 0.37 MBq, total radioactivity
Procedure: (§1) The animals were randomly chosen for in vivo assays when the tumor size reached 100–150 mm^3 (1–2 weeks after inoculation).
(§2) Each mouse was injected with 0.37 MBq (~ 0.03 µg) of tracer to evaluate the distribution of the probe in tumors and major organs (4 mice/group). The mice were sacrificed and dissected at 0.5, 1 and 2 h p.i. Blood, tumor, liver, kidney and other major organs were collected and weighed, and their radioactivity was counted in a Wallac 1480 γ-counter (Perkin-Elmer, Waltham, MA). […] All biodistribution data are presented as the percentage of injected dose per gram of tissue (%ID/g).

HER2 protein [2] = biological target: HER2 protein (Homo sapiens, UniProt P04626); assay: Surface plasmon resonance of peptides toward HER2 protein; assay type: binding
[3] = biological target: HER2 on SK-BR-3 cells (HER2-positive human breast cancer cell line) (human (endogenous in SK-BR-3)) (UniProt P04626)
[4] = tested on: SK-BR-3 tumors (HER2-positive); assay: Small-animal nanoScan SPECT/CT imaging in the SK-BR-3 tumor model; assay type: in vivo, female NOD SCID mice
Procedure: At 0.5, 1 and 2 h p.i., the mice were anesthetized by inhalation of 2% isoflurane and imaged using a nanoScan SPECT/CT system (Mediso Inc., Hungary) following a standard protocol. Briefly, the small-animal SPECT images were acquired with the technetium-99 m parameters (peak 140 keV with 20% width, frame time 25 s), and CT images were acquired with default settings (50 kVp, 0.67 mA, and rotation 210°, exposure time 300 ms). All SPECT/CT images were reconstructed and further analyzed by Fusion software (Mediso Inc., Hungary), including drawing volumes of interest on tumors and major organs as well as calculating the tumor uptake (%ID/cc) accordingly. […] Small-animal imaging of the monomer tracer ^99mTc-HP-rk was also conducted as a control.

[5] = Dosimetry estimation (OLINDA/EXM); design: species or system human; conditions: for effective radiation dose to the body: 11.1 MBq/kg
Procedure: The dosimetry calculation was performed according to the European Association of Nuclear Medicine Dosimetry Guidance and calculated using OLINDA/EXM (version 1.1; Vanderbilt University). The radiation effective dose (mSv/MBq) of the main organs of the human body was estimated from the biodistribution data of the SK-BR-3 tumor models (Additional file 1: Table S1).
The radiation effective dose (mSv/MBq) of the main organs of the human body was estimated from the biodistribution data of the SK-BR-3 tumor model (Table S1).

[6] = radio-HPLC (Fig. 1B)
[7] = tested on: SK-BR-3 tumor (HER2-positive); conditions: 0.5, 1 and 2 h p.i.; 0.37 MBq i.v.; 4 mice/group
Procedure: as §1, §2

[8] = tested on: HER2 expression in breast tumors
Procedure: (§3) The wrist or elbow on the same side as the healthy breast was selected for injection. […] On PET images, the volumes of interest (VOIs) were drawn over tumors using a 40% threshold, and the software automatically obtained the radioactivity concentration and the maximum and the mean standardized uptake values (SUVmax and SUVmean, respectively). T/B ratios were calculated from SUVmean values for further analysis. The contralateral breast tissue was considered the background for calculations. For semiquantitative analyses of SPECT images, the same VOI method as above was adopted to obtain the maximum and the average count values (Countsmax and Countsavg, respectively) of the breast tumors. The Countsavg value was compared between the tumor region and the contralateral region to obtain the T/B ratio. Calculations were performed using SPSS 23.0 software (IBM SPSS, Chicago, IL, USA) and GraphPad Prism 8 (GraphPad Software, San Diego, CA 92,108). After surgery, HER2 expression status was evaluated by IHC in tumor pathological sections of all 34 patients. For patients with an IHC score of HER2 (2 +), FISH was further performed.
(§4) Quantitative data were expressed as the mean ± SD. Statistical analysis of image parameters and biodistribution was performed with Student’s t test in Prism 7.0 (GraphPad Software, Inc., USA). P < 0.05 was considered statistically significant. Correlation analysis of the SUV data of clinical images and the IHC results was performed with SPSS Statistics 23.0 software (IBM SPSS, USA). The correlation between the SPECT T/B ratio and HER2 status was evaluated by Wilcoxon’s rank sum test. Spearman’s rank correlation analysis was performed on the SPECT T/B ratio and the immunoreactivity score. ROC curve analysis was performed to determine an optimal cutoff value for detecting HER2-positive (2 + , 3 +) breast cancer and to compare the diagnostic performance of different methods.

[9] = 1.85 MBq i.v., blood 1-240 min p.i., γ-counter, seven mice, fitted in Prism 7.0
Procedure: Blood was drawn through the orbit of the mouse at 1, 3, 8, 15, 30, 60, 90, 120, 180, and 240 min p.i. The radioactivity was counted in a γ-counter, and the percentage injected dose per gram of blood (%ID/g) at each time point was calculated. The slow half-life and fast half-life were analyzed and calculated by Prism 7.0.

[10] = 74 MBq i.v., n = 5
Procedure: Ten 4-week-old female ICR mice were randomly divided into the experimental and control groups. The mice were numbered, weighed and photographed. […] The mice in the control group were injected with the same volume of saline. After 120 h, the mice were photographed again, their body weight was recorded, and the behavioral differences were observed. After the mice were sacrificed, they were dissected to observe the morphological differences in the organs.

in vivo [11] = conditions: female, NOD SCID, mouse, tumor (MCF7 xenograft), 0.37 MBq, total radioactivity
Procedure: as §1, §2

in vivo [12] = conditions: female, NOD SCID, mouse, tumor (MDA-MB-468 xenograft), 0.37 MBq, total radioactivity
Procedure: as §1, §2

clinical = conditions: female, human, in vivo, iv, 11.1 MBq per kilogram body weight, total radioactivity, mean ± SD
Procedure: as §3, §4

[13] = In vivo metabolic stability (urine, radio-HPLC); conditions: ~37 MBq i.v., mouse urine collected p.i. (2 h, b63; 0.5 h for ^99mTc-H10F in Fig. S3)
HER2 protein [14] = biological target: T1, HER2 protein (human, UniProt P04626 23-652); assay: SPR; Plexera PlexArray HT; sulfhydryl peptides printed on a bare gold chip through the cysteine thiol, blocked with 5% nonfat milk; protein flowed over in PBS (HER2 at 70.4, 35.2, 17.6 and 8.8 nM); regeneration 0.5% H3PO4; EGFR, HER3 and HER4 as controls with the same procedure; conditions: both partners purified
T1 construct: human epidermal growth factor receptor 2 (HER2), soluble protein used as SPR analyte; also called human epidermal growth factor receptor 2

[15] = Female, OLINDA/EXM 1.1, from mouse SK-BR-3 biodistribution
[16] = Male, OLINDA/EXM 1.1, from mouse SK-BR-3 biodistribution

CC(C)C[C@@H](NC(=O)[C@@H](CCCNC(=N)N)NC(=O)[C@@H](CC(C)C)NC(=O)[C@@H](CCC(=O)O)NC(=O)[C@@H](Cc1c[nH]c2ccccc12)NC(=O)[C@@H](CC(N)=O)NC(=O)[C@@H](CCCNC(=N)N)NC(=O)CCOCCOCCOCCOCCNC(=O)c1ccc(NN=Cc2ccccc2S(=O)(=O)O)nc1)C(=O)N[C@H](CCCCN)C(=O)O [^99mTc-HP-rk, metal not drawn]
tissue uptake at 0.5 h (in vivo [1]): 1.94 ± 0.12 %ID/g

CC(C)C[C@@H](NC(=O)[C@@H](CCCNC(=N)N)NC(=O)[C@@H](CC(C)C)NC(=O)[C@@H](CCC(=O)O)NC(=O)[C@@H](Cc1c[nH]c2ccccc12)NC(=O)[C@@H](CC(N)=O)NC(=O)[C@@H](CCCNC(=N)N)NC(=O)CCCCCCCNC(=O)CC[C@H](N)C(=O)NCCCCCCCC(=O)N[C@H](CCCNC(=N)N)C(=O)N[C@H](CC(N)=O)C(=O)N[C@H](Cc1c[nH]c2ccccc12)C(=O)N[C@H](CCC(=O)O)C(=O)N[C@H](CC(C)C)C(=O)N[C@H](CCCNC(=N)N)C(=O)N[C@H](CC(C)C)C(=O)N[C@H](CCCCN)C(=O)O)C(=O)N[C@H](CCCCN)C(=O)O [Ark2]
Kd (HER2 protein [2]; read-out: dissociation constant (KD) to HER2 protein, SPR, Plexera PlexArray HT, Cys-peptides printed on gold chip, HER2 protein 8.8-70.4 nM in PBS, from fitted association/dissociation rates): 10 nM

^99mTc-HP-Ark2, ^99mTc-{HYNIC-PEG4-Glu[8-aminooctanoic-D(RNWELRLK)]2/Tricine/TPPTS} (peptide)
tumor uptake in the SK-BR-3 tumor model at 0.5 h p.i. (biodistribution, n = 4) [3]: 3.99 %ID/g | tumor uptake in the SK-BR-3 tumor model at 0.5 h p.i. with coinjection of excess cold rk peptide (blocking group, n = 4) [3]: 1.42 %ID/g

CC(C)C[C@@H](NC(=O)[C@@H](CCCNC(=N)N)NC(=O)[C@@H](CC(C)C)NC(=O)[C@@H](CCC(=O)O)NC(=O)[C@@H](Cc1c[nH]c2ccccc12)NC(=O)[C@@H](CC(N)=O)NC(=O)[C@@H](CCCNC(=N)N)NC(=O)CCCCCCCNC(=O)CC[C@H](NC(=O)CCOCCOCCOCCOCCNC(=O)c1ccc(NN=Cc2ccccc2S(=O)(=O)O)nc1)C(=O)NCCCCCCCC(=O)N[C@H](CCCNC(=N)N)C(=O)N[C@H](CC(N)=O)C(=O)N[C@H](Cc1c[nH]c2ccccc12)C(=O)N[C@H](CCC(=O)O)C(=O)N[C@H](CC(C)C)C(=O)N[C@H](CCCNC(=N)N)C(=O)N[C@H](CC(C)C)C(=O)N[C@H](CCCCN)C(=O)O)C(=O)N[C@H](CCCCN)C(=O)O [^99mTc-HP-Ark2, metal not drawn]
imaging intensity in tumors compared with monomer tracer ([4]; SK-BR-3 model, 0.5 h p.i.): stronger than that of ^99mTc-HP-rk | tumor uptake on imaging with coinjected cold rk peptide ([4]; blocking dose 25 mg/kg rk, 0.5 h p.i.): significantly blocked tumor uptake | tumor uptake on imaging with coinjected cold trastuzumab ([4]; blocking dose 30 mg/kg trastuzumab, 0.5 h p.i.): did not block tumor uptake | tumor visualization by SPECT/CT ([4]; ~37 MBq i.v., 0.5, 1 and 2 h p.i., subcutaneous or in situ, tumors as small as ~20 mm^3): clearly visualized | effective radiation dose to the body ([5]; 50 kg females): ~5.72 mSv | effective radiation dose to the body ([5]; 65 kg males): approximately 6.62 mSv | Effective Dose Equivalent, Adrenals [5, 15]: 5.36E-04 mSv/MBq | Effective Dose Equivalent, Brain [5, 15]: 0.00E+00 mSv/MBq | Effective Dose Equivalent, Breasts [5, 15]: 4.44E-05 mSv/MBq | Effective Dose Equivalent, Gallbladder Wall [5, 15]: 2.60E-04 mSv/MBq | Effective Dose Equivalent, Heart Wall [5, 15]: 0.00E+00 mSv/MBq | Effective Dose Equivalent, Kidneys [5, 15]: 7.87E-03 mSv/MBq | Effective Dose Equivalent, LLI Wall [5, 15]: 0.00E+00 mSv/MBq | Effective Dose Equivalent, Liver [5, 15]: 0.00E+00 mSv/MBq | Effective Dose Equivalent, Lungs [5, 15]: 1.90E-04 mSv/MBq | Effective Dose Equivalent, Muscle [5, 15]: 0.00E+00 mSv/MBq | Effective Dose Equivalent, Osteogenic Cells [5, 15]: 6.07E-05 mSv/MBq | Effective Dose Equivalent, Ovaries [5, 15]: 2.49E-04 mSv/MBq | Effective Dose Equivalent, Pancreas [5, 15]: 3.43E-04 mSv/MBq | Effective Dose Equivalent, Red Marrow [5, 15]: 2.27E-04 mSv/MBq | Effective Dose Equivalent, Skin [5, 15]: 0.00E+00 mSv/MBq | Effective Dose Equivalent, Small Intestine [5, 15]: 0.00E+00 mSv/MBq | Effective Dose Equivalent, Spleen [5, 15]: 4.89E-04 mSv/MBq | Effective Dose Equivalent, Stomach Wall [5, 15]: 0.00E+00 mSv/MBq | Effective Dose Equivalent, Thymus [5, 15]: 0.00E+00 mSv/MBq | Effective Dose Equivalent, Thyroid [5, 15]: 2.78E-06 mSv/MBq | Effective Dose Equivalent, ULI Wall [5, 15]: 0.00E+00 mSv/MBq | Effective Dose Equivalent, Urinary Bladder Wall [5, 15]: 0.00E+00 mSv/MBq | Effective Dose Equivalent, Uterus [5, 15]: 0.00E+00 mSv/MBq | Effective Dose Equivalent, Adrenals [5, 16]: 4.04E-04 mSv/MBq | Effective Dose Equivalent, Brain [5, 16]: 0.00E+00 mSv/MBq | Effective Dose Equivalent, Breasts [5, 16]: 3.64E-05 mSv/MBq | Effective Dose Equivalent, Gallbladder Wall [5, 16]: 2.31E-04 mSv/MBq | Effective Dose Equivalent, Heart Wall [5, 16]: 0.00E+00 mSv/MBq | Effective Dose Equivalent, Kidneys [5, 16]: 7.26E-03 mSv/MBq | Effective Dose Equivalent, LLI Wall [5, 16]: 0.00E+00 mSv/MBq | Effective Dose Equivalent, Liver [5, 16]: 0.00E+00 mSv/MBq | Effective Dose Equivalent, Lungs [5, 16]: 1.38E-04 mSv/MBq | Effective Dose Equivalent, Muscle [5, 16]: 0.00E+00 mSv/MBq | Effective Dose Equivalent, Osteogenic Cells [5, 16]: 4.73E-05 mSv/MBq | Effective Dose Equivalent, Pancreas [5, 16]: 2.81E-04 mSv/MBq | Effective Dose Equivalent, Red Marrow [5, 16]: 1.94E-04 mSv/MBq | Effective Dose Equivalent, Skin [5, 16]: 0.00E+00 mSv/MBq | Effective Dose Equivalent, Small Intestine [5, 16]: 0.00E+00 mSv/MBq | Effective Dose Equivalent, Spleen [5, 16]: 3.96E-04 mSv/MBq | Effective Dose Equivalent, Stomach Wall [5, 16]: 0.00E+00 mSv/MBq | Effective Dose Equivalent, Testes [5, 16]: 0.00E+00 mSv/MBq | Effective Dose Equivalent, Thymus [5, 16]: 0.00E+00 mSv/MBq | Effective Dose Equivalent, Thyroid [5, 16]: 2.27E-06 mSv/MBq | Effective Dose Equivalent, ULI Wall [5, 16]: 0.00E+00 mSv/MBq | Effective Dose Equivalent, Urinary Bladder Wall [5, 16]: 0.00E+00 mSv/MBq | Effective Dose Equivalent, Uterus [5, 16]: 0.00E+00 mSv/MBq | in vitro stability [6]: excellent in vitro and in vivo stability | tumor uptake compared with other organs [7]: higher tumor uptake than uptake in other organs (except for kidneys) | adverse events related to tracer administration ([8]; 34 patients, ~11.1 MBq/kg i.v.): No adverse events | detection of metastatic lymph nodes ([8]; patients with HER2-positive tumors and ipsilateral lymph node metastases (Nos. 4, 5, 7, 15, 24, 29)): all 6 patients | kidney uptake in patients ([8]; quantified biodistribution from SPECT/CT, n = 34 (Fig. S10)): high uptake | fast half-life in blood [9]: 3.12 min | slow half-life in blood [9]: 32.45 min | body weight after high-dose injection ([10]; 120 h): did not decrease | organ morphology after dissection ([10]; 120 h): no abnormal organs | behavior after high-dose injection ([10]; 120 h after injection): no abnormal behavior | tissue uptake at 0.5 h (in vivo [1]): 3.99 ± 0.15 %ID/g | tissue uptake at 0.5 h (in vivo [11]): 1.44 ± 0.08 %ID/g | tissue uptake at 0.5 h (in vivo [12]): 1.08 ± 0.06 %ID/g | tissue to tissue ratio at 0.5 h (clinical; T/B ratio of HER2-negative tumors, IHC (2+) plus FISH+ or IHC (3+) criterion, n = 24): 1.54 ± 1.03 | tissue to tissue ratio at 0.5 h (clinical; T/B ratio of HER2-negative tumors, negative = IHC (0/1+), n = 17): 1.16 ± 0.29 | tissue to tissue ratio at 0.5 h (clinical; T/B ratio of HER2-positive tumors, positive = IHC (2+) or (3+), n = 19): 2.49 ± 1.13 | tissue to tissue ratio at 0.5 h (clinical; T/B ratio of HER2-positive tumors, positive = IHC (2+) plus FISH+ or IHC (3+), n = 12): 2.5 ± 0.88 | in vivo metabolic stability [13]: excellent in vitro and in vivo stability

CC(C)C[C@H](NC(=O)[C@H](CCCNC(=N)N)NC(=O)[C@H](CC(C)C)NC(=O)[C@@H](N)CCCCN)C(=O)N[C@@H](CCC(=O)O)C(=O)N[C@@H](Cc1c[nH]c2ccccc12)C(=O)N[C@@H](CC(N)=O)C(=O)N[C@@H](CCCNC(=N)N)C(=O)O [H10F] (H-KLRLEWNR-OH)
Kd (HER2 protein [2]): 70 nM and 70.2 nM

B1: Cys-H10F (sulfhydryl form of the L-peptide H10F, KLRLEWNR) (peptide)
peptide: KLRLEWNR
notes: HER2-targeting L-peptide H10F; also called parental L-peptide; source: synthetic peptide, bought: GL Biochem Ltd
Kd (HER2 protein [14]): 70.2 nM
